Data on one substance can be found in PMC12598616, “Design and optimization of caspase-1-responsive fluorescent probes for pyroptosis imaging and anti-pyroptosis drug screening” (Chemical Science, 2025).

The data set has as its target T1, caspase-1 (Homo sapiens, UniProt P29466).
T1 sequence (P29466 120-297 limits assumed): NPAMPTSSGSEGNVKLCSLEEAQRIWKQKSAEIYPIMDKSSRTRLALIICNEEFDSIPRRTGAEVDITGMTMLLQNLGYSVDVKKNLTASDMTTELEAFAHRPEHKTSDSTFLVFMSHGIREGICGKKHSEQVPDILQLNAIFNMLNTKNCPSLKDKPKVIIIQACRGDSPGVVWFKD
T1 sequence (P29466 317-404 limits assumed): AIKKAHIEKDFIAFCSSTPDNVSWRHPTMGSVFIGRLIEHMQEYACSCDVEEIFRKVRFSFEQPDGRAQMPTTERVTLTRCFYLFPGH
Briefly: Enzyme kinetic studies with caspase-1. Format: biochemical. Particulars: probe 0.5–4 μM, Cas-1 2 U/mL, HEPES assay buffer, 37 °C, read every 2 min, λex 510 nm/λem 585 nm, Lineweaver-Burk plot; read-out: Michaelis constant (KM). On the procedure: The spectral and chemical properties of all probes were then evaluated. Upon interaction with Cas-1, the specific peptide of the probes is cleaved, leading to the disruption of the FRET process in the system and the recovery of donor fluorescence (Fig. 2a). Prior to fluorescence detection, the UV-vis absorption spectra of the probes were acquired. […] Subsequently, the sensitivity of the probes towards Cas-1 was measured in HEPES buffer (50 mM HEPES, 50 mM NaCl, 0.1% chaps, 5% glycerol, 10 mM DTT, 10 mM EDTA). […] The response differences among the probes were more intuitively observed by analyzing the standard curves of fluorescence intensity at 585 nm against the concentration of Cas-1 (Fig. 2b). […] The reaction kinetics of the probes were also measured by monitoring the fluorescence intensity of FPy1, YPy1 and WPy1 (0.5–4 μM) following incubation with Cas-1 (2 U mL^−1) (Fig. S3a–f). […] The reaction time of the probes was also investigated by monitoring the fluorescence spectra of the probes (5 μM) incubated with Cas-1 (2 U mL^−1) at various time intervals (Fig. S4a–c). […] Finally, the selectivity of the probes was evaluated. A series of potential biologically relevant interferents were selected, and the results illustrated that these interferents had no effect on the probes (Fig. S5a–c). […]

The Km is the concentration of substrate that gives half-maximal velocity. For “–FLTDG– [FPy1, RhoB donor, hNR quencher]”, the Michaelis constant (Km) was found to be 4.42 µM.
